The supplement of paper PMC11316812
± gives the standard deviation of the averaged measurements.

What was measured:
hTERT-HMEC = assay: percentage of EdU-negative (G0-arrested) nuclei per well, 72 h; higher = more G0 arrest; conditions: reference: sequence is the full UniProt precursor, the tested protein was the secreted form or ectodomain
MCF7 = assay: as above; conditions: reference: sequence is the full UniProt precursor, the tested protein was the secreted form or ectodomain
[1] = protein concentration 0.03125 µM
[2] = protein concentration 0.3125 µM
[3] = protein concentration 0.0242225 µM
[4] = protein concentration 0.242225 µM
[5] = protein concentration 0.0165714 µM
[6] = protein concentration 0.165714 µM
[7] = protein concentration 0.0191429 µM
[8] = protein concentration 0.191429 µM
[9] = protein concentration 0.00625 µM
[10] = protein concentration 0.0625 µM
[11] = protein concentration 0.0357143 µM
[12] = protein concentration 0.357143 µM
[13] = protein concentration 0.00525 µM
[14] = protein concentration 0.0525 µM
[15] = protein concentration 0.0225 µM
[16] = protein concentration 0.012015 µM
[17] = protein concentration 0.12015 µM
[18] = protein concentration 0.0111429 µM
[19] = protein concentration 0.111429 µM
[20] = protein concentration 0.00725 µM
[21] = protein concentration 0.0725 µM
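Also: secreted proteins added to cultured cells, EdU pulse at the end, nuclei found by Hoechst imaging, EdU status from nuclear versus surrounding ring intensity ratio, PBS as neutral control.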

Chain of Q9BZP6 (chain, as listed by the source): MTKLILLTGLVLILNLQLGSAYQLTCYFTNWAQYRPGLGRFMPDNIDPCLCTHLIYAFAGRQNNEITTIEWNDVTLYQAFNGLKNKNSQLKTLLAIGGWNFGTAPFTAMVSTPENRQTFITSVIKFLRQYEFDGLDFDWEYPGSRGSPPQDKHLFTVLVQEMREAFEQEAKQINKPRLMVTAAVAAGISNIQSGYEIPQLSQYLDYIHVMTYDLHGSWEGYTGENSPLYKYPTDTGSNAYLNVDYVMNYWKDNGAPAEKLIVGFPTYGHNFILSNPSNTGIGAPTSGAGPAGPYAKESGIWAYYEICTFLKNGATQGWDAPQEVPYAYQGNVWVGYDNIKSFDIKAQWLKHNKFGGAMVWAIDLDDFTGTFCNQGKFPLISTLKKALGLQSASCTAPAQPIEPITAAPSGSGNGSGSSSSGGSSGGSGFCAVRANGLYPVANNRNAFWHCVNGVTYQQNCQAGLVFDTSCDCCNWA
Chain of Q9BXJ3 (chain, as listed by the source): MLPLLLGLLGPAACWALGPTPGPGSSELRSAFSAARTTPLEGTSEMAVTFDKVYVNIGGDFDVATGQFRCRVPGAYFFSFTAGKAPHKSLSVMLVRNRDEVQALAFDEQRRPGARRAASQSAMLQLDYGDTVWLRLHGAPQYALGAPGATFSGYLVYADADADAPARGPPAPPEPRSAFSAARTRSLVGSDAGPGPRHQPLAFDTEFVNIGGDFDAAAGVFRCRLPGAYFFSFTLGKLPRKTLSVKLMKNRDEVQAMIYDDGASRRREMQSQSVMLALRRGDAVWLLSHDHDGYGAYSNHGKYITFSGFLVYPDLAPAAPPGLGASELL
Chain of Q8IWL2 (chain, as listed by the source): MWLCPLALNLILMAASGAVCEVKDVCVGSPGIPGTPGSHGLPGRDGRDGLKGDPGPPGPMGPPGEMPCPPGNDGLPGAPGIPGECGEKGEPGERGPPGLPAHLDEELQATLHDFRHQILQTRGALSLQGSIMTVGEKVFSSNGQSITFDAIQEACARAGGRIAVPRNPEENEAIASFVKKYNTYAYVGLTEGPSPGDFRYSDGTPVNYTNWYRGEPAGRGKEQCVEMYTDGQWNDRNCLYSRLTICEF
Chain of Q8WXD2 (chain, as listed by the source): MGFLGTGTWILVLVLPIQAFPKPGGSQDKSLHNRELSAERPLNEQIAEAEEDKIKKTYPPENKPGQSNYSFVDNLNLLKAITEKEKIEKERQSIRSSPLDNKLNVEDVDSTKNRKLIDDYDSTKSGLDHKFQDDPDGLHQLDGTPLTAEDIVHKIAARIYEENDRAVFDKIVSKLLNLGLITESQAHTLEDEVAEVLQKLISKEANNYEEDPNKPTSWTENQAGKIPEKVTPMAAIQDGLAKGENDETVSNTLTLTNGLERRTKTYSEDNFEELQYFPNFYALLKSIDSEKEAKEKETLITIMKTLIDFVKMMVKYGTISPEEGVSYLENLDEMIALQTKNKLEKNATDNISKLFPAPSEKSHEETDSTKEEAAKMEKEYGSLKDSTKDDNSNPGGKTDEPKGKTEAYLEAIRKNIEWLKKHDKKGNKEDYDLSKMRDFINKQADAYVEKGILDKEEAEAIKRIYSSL
Chain of Q9ULB1 (chain, as listed by the source): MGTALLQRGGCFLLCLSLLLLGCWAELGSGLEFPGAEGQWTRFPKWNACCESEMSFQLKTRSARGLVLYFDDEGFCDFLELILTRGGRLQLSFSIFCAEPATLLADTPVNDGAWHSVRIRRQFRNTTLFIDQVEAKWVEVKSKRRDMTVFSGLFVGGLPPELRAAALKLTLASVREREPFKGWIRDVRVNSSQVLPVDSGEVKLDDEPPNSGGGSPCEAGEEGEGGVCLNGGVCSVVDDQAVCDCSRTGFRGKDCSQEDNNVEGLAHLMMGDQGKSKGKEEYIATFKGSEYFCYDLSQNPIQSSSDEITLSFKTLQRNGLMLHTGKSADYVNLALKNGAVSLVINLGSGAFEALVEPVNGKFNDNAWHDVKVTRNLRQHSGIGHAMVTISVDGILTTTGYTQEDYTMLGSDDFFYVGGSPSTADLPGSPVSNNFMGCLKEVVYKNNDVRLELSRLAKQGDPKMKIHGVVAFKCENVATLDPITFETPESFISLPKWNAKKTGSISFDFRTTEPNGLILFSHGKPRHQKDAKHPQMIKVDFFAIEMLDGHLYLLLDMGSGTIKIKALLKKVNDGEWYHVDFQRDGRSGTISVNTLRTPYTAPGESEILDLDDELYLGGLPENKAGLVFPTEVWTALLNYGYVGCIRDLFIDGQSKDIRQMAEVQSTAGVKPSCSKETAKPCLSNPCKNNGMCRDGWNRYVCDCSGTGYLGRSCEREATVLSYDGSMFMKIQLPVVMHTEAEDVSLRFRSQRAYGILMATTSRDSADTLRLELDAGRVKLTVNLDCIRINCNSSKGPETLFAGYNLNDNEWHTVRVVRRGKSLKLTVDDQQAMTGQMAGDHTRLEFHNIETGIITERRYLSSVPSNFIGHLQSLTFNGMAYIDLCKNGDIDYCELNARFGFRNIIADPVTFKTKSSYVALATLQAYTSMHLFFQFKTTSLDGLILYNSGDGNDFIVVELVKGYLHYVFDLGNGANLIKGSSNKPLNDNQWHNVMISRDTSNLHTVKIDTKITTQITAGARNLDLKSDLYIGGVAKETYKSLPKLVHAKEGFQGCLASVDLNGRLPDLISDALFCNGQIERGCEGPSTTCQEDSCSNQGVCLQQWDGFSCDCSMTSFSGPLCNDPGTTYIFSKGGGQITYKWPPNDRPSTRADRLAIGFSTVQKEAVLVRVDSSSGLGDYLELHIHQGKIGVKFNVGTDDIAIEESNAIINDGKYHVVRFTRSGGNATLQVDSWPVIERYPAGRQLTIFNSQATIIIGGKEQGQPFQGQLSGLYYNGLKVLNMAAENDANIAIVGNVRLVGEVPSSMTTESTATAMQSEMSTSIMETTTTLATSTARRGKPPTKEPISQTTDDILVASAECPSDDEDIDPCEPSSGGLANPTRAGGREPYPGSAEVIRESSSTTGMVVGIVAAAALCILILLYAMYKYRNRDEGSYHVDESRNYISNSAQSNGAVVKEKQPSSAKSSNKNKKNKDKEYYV
Chain of Q9UBP4 (chain, as listed by the source): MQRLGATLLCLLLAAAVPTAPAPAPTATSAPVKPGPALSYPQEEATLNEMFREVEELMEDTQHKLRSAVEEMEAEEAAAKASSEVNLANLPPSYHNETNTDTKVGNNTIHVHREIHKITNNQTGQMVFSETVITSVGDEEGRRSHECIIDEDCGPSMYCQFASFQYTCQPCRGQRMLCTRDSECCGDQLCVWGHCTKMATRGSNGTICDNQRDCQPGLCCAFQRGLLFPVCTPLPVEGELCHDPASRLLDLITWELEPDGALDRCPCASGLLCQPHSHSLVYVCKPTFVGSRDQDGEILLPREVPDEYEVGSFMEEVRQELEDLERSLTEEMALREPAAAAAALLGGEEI

Substance: Q8IWL2
- percentage of EdU-negative (hTERT-HMEC; [1]): 5.36 ± 0.08%
- percentage of EdU-negative (hTERT-HMEC; [2]): 6.18 ± 0.17%
- percentage of EdU-negative (MCF7; [1]): 25.4 ± 0.46%
- percentage of EdU-negative (MCF7; [2]): 26.7 ± 0.54%

Substance: Q8NBS9
- percentage of EdU-negative (hTERT-HMEC; [3]): 4.77 ± 0.42%
- percentage of EdU-negative (hTERT-HMEC; [4]): 8.37 ± 0.54%
- percentage of EdU-negative (MCF7; [3]): 27.1 ± 0.28%
- percentage of EdU-negative (MCF7; [4]): 27.4 ± 0.94%

Substance: Q8WXD2
- percentage of EdU-negative (hTERT-HMEC; [5]): 5.59 ± 0.58%
- percentage of EdU-negative (hTERT-HMEC; [6]): 6.19 ± 0.24%
- percentage of EdU-negative (MCF7; [5]): 25.6 ± 3.6%
- percentage of EdU-negative (MCF7; [6]): 29.2 ± 1.7%

Substance: Q9BXJ3
- percentage of EdU-negative (hTERT-HMEC; [7]): 5.17 ± 0.79%
- percentage of EdU-negative (hTERT-HMEC; [8]): 4.77 ± 0.24%
- percentage of EdU-negative (MCF7; [7]): 27.3 ± 3.6%
- percentage of EdU-negative (MCF7; [8]): 23.8 ± 1.1%

Substance: Q9BXP8
- percentage of EdU-negative (hTERT-HMEC; [9]): 5.11 ± 0.6%
- percentage of EdU-negative (hTERT-HMEC; [10]): 6.47 ± 0.67%
- percentage of EdU-negative (MCF7; [9]): 26.6 ± 1.2%
- percentage of EdU-negative (MCF7; [10]): 28.7 ± 1.2%

Substance: Q9BYZ8
- percentage of EdU-negative (hTERT-HMEC; protein concentration 0.02 µM): 5.55 ± 0.64%
- percentage of EdU-negative (hTERT-HMEC; protein concentration 0.2 µM): 19.9 ± 4.5%
- percentage of EdU-negative (MCF7; protein concentration 0.02 µM): 24.8 ± 0.7%
- percentage of EdU-negative (MCF7; protein concentration 0.2 µM): 29.6 ± 2.5%

Substance: Q9BZP6
- percentage of EdU-negative (hTERT-HMEC; [11]): 5.02 ± 0.9%
- percentage of EdU-negative (hTERT-HMEC; [12]): 6.66 ± 0.26%
- percentage of EdU-negative (MCF7; [11]): 23.1 ± 1.2%
- percentage of EdU-negative (MCF7; [12]): 27.6 ± 0.63%

Substance: Q9BZZ2
- percentage of EdU-negative (hTERT-HMEC; [13]): 4.58 ± 0.46%
- percentage of EdU-negative (hTERT-HMEC; [14]): 21.5 ± 2.5%
- percentage of EdU-negative (MCF7; [13]): 26.9 ± 2.3%
- percentage of EdU-negative (MCF7; [14]): 31.1 ± 2.4%

Substance: Q9HBE5
- percentage of EdU-negative (hTERT-HMEC; [11]): 4.85 ± 0.64%
- percentage of EdU-negative (hTERT-HMEC; [12]): 5.88 ± 0.38%
- percentage of EdU-negative (MCF7; [11]): 24.6 ± 3%
- percentage of EdU-negative (MCF7; [12]): 26.38 ± 0.26%

Substance: Q9NP99
- percentage of EdU-negative (hTERT-HMEC; [15]): 4.69 ± 0.52%
- percentage of EdU-negative (hTERT-HMEC; protein concentration 0.225 µM): 5.446 ± 0.054%
- percentage of EdU-negative (MCF7; [15]): 25.2 ± 3.3%
- percentage of EdU-negative (MCF7; protein concentration 0.225 µM): 25.7 ± 1.1%

Substance: Q9NQS3
- percentage of EdU-negative (hTERT-HMEC; [15]): 4.83 ± 1.2%
- percentage of EdU-negative (hTERT-HMEC; protein concentration 0.225 µM): 4.728 ± 0.0098%
- percentage of EdU-negative (MCF7; [15]): 25.9 ± 3.8%
- percentage of EdU-negative (MCF7; protein concentration 0.225 µM): 26.1 ± 2.9%

Substance: Q9UBP4
- percentage of EdU-negative (hTERT-HMEC; [16]): 5.79 ± 1.3%
- percentage of EdU-negative (hTERT-HMEC; [17]): 6.35 ± 0.93%
- percentage of EdU-negative (MCF7; [16]): 24.3 ± 2.6%
- percentage of EdU-negative (MCF7; [17]): 25.52 ± 0.066%

Substance: Q9ULB1
- percentage of EdU-negative (hTERT-HMEC; [18]): 5.3 ± 0.36%
- percentage of EdU-negative (hTERT-HMEC; [19]): 9.04 ± 0.11%
- percentage of EdU-negative (MCF7; [18]): 25.5 ± 2.5%
- percentage of EdU-negative (MCF7; [19]): 26.3 ± 2.4%

Substance: Q9ULL4
- percentage of EdU-negative (hTERT-HMEC; [20]): 5.08 ± 0.93%
- percentage of EdU-negative (hTERT-HMEC; [21]): 5.74 ± 0.25%
- percentage of EdU-negative (MCF7; [20]): 23.6 ± 1.5%
- percentage of EdU-negative (MCF7; [21]): 27.8 ± 0.59%

Substance: Q9Y6N7
- percentage of EdU-negative (hTERT-HMEC; [15]): 5.33 ± 0.86%
- percentage of EdU-negative (hTERT-HMEC; protein concentration 0.225 µM): 5.81 ± 0.72%
- percentage of EdU-negative (MCF7; [15]): 27 ± 0.88%
- percentage of EdU-negative (MCF7; protein concentration 0.225 µM): 25.6 ± 1.4%
